Reference: paper PMC3954831, “Protection of Cardiomyocytes from the Hypoxia-Mediated Injury by a Peptide Targeting the Activator of G-Protein Signaling 8” (PLoS ONE, 2014)

B1: AGS8-peptide CP1 (peptide)
peptide: APRNITVVAMEGCHSFVIVDWNKAIPGDV
notes: About 97% HPLC purity; source: synthetic peptide (Invitrogen)
B2: AGS8-peptide CP9 (peptide)
peptide: SFVIVDWNKAIPGDVVTGYLVYSASYEDFI
notes: as for B1

Molecular target: T1, Recombinant human Gβ1γ2 (human, UniProt P62873 1-340; P59768 1-71)
T1 construct: G-protein beta 1 subunit, human, recombinant; G-protein gamma 2 subunit, human, recombinant; Preformed heterodimer bought as such; detected by an anti-Gβ antibody; also called Gβγ; purified Gβγ; source: bought: Calbiochem-Merck Millipore (recombinant)
Assay: pull-down; competition: GST-AGS8-C (100 nM) incubated with recombinant human Gβ1γ2 (10 nM) in the presence of rising doses of peptide CP1 or CP9, adsorbed to a glutathione matrix; immunoblot with densitometry, n = 6
Settings: both partners purified

Row | Binder | IC50 [µM]
1 | B1 | 6.73
2 | B2 | 2.77
